# ± gives the standard deviation.
# Test: protein stability index of a GFP-peptide fusion (GPS, HEK-293T) (PSI 1-6); higher = more stable
# [1] = treatment: DMSO, c terminus: a fixed tail appended
# [2] = treatment: MLN4924 1 uM, 8 h, c terminus: a fixed tail appended
# [3] = treatment: DMSO, c terminus: native
# [4] = treatment: MLN4924 1 uM, 8 h, c terminus: native
# 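Also: 24-mer peptide tiles fused after GFP, lentivirally expressed, FACS-sorted into six equal bins by GFP/DsRed ratio, decoded by Illumina sequencing, PSI is the read-weighted mean bin number.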
Sequence,protein stability index [1],protein stability index [2],protein stability index [3],protein stability index [4]
RCGYRLVRRQRSADEQLHCAGKAK [ESR2],3.69 ± 0.36,3.91 ± 0.26,–,–
EVGSMKIQSGAWVCYQYPGYRGYQ [CRYBA1],2.08 ± 0.24,2.32 ± 0.11,–,–
QNGEEGTSTPEDKESGQEGVDSMA [SMARCE1],5.44 ± 0.17,5.65 ± 0.29,–,–
KCEHCRVLFLDHVMYTIHMGCHGF [IKZF1],2.24 ± 0.38,2.49 ± 0.63,–,–
KAVVFFVFYLWSAIEIFRYSFYML [HACD3],3.46 ± 0.28,3.08 ± 0.32,–,–
CPHCGDRTFYDPEPILCPCFMPN [PRAME],–,–,3.98 ± 0.25,3.99 ± 0.48
STETLVHVSDEDNNADLCLTDDKQ [DLC1],5.59 ± 0.36,5.59 ± 0.38,–,–
AVYFAEAEEAESHFSSIPDAFWWA [KCNA1],2.27 ± 0.4,2.53 ± 0.42,–,–
KVYYEVIQLIKTNKKHIHSRSTLE [SMG5],2.33 ± 0.93,2.26 ± 0.25,–,–
MNPYKIDIGAVYSHRPNQHNTVKL [PRIM1],2.79 ± 0.06,2.43 ± 0.37,–,–
SGAVGARRFLLCLYLVGFLDLFGV [MFSD9],2.99 ± 0.54,2.84 ± 0.37,–,–
EAEAADSGAVGARRFLLCLYLVGF [MFSD9],2.79 ± 0.91,2.65 ± 0.71,–,–
KFGRTCLHAAAAGGNVECIKLLQS [ANKRD44],2.44 ± 0.45,2.55 ± 0.12,–,–
DLIDVDLIRGSTFAKAKPEIPWTS [PHTF1],2.25 ± 0.17,2.46 ± 0.22,–,–
GTTVTFDDLMGILCKSVLEIERAI [FEM1C],2.31 ± 0.26,2.14 ± 0.42,–,–
EAAEGRNKNEVFYQCPDQMARNPA [FBXO3],5 ± 0.32,4.67 ± 0.52,–,–
YDKNIIHKTAGKRYVYRFVCDLQS [ETS1],2.11 ± 0.17,2.14 ± 0.17,–,–
ETAIADAEQRGDNALKDARAKLDE [KRT71],5.57 ± 0.21,5.41 ± 0.54,–,–
SSSSGRLSEPDPSHTLEERVVHWY [SMOC2],3.14 ± 0.38,3.1 ± 0.22,–,–
SQAIDLLYWRDIKQTGIVFGSFLL [RTN1],3.03 ± 0.81,3.01 ± 0.47,–,–
HQRIHTGEKPFECNECGKAFRWGA [ZNF232],2.64 ± 0.5,2.61 ± 0.67,–,–
NESALVKEKELSIELANIRDEVAF [MTUS2],4.42 ± 0.28,4.33 ± 0.46,–,–
AVSVMKKCRKLEDPQSSSQVTTS [SLC19A2],–,–,4.36 ± 0.23,4.37 ± 0.19

Sequence,protein stability index [1],protein stability index [2],protein stability index [3],protein stability index [4]
ALNQEFLATRSNEKQELQELNDRF [PRPH],4.24 ± 0.19,4.38 ± 0.22,–,–
KTHSSPALSQGHVTGSKTTKDATG [PSD2],5.37 ± 0.06,5.46 ± 0.17,–,–
IKPENILITKQGIIKICDFGFAQI [CDKL4],2.18 ± 0.29,2.49 ± 1,–,–
MTLLPGDNSDYDYSALSCTSDASF [KCNG1],3.79 ± 0.27,3.87 ± 0.24,–,–
TFHEGKHNISHMSMDIARGLMVTC [WDFY1],2.49 ± 0.63,2.04 ± 0.14,–,–
RKPSVPWQRQMDQPQDRNQALGTH [RASAL3],4.08 ± 0.16,4.21 ± 0.19,–,–
LSICFTCFKAAFLDFKDLLESEDW [TEX19],2.62 ± 0.5,2.69 ± 0.39,–,–
RAPQGCSGVDECARQEGLTFFGTE [PBXIP1],4.01 ± 0.35,4.3 ± 0.55,–,–
EYQCQNLYQLEGNNQITCRNGQWS [CFHR2],3.09 ± 0.14,3.03 ± 0.21,–,–
AVFRFWAGGEKGPQAFPMSRLWDS [DNAAF3],2.14 ± 0.26,2.18 ± 0.22,–,–
QTASRSLVLSEDRKSVRYTRQKKN [TRIM15],4.83 ± 0.27,4.8 ± 0.24,–,–
ENIAWVKSYNICFELEDSNEIFTQ [PDS5B],2.46 ± 0.61,2.53 ± 0.28,–,–
GRSFREEQCVSFNSHVYNGRTHQW [ADAMTSL2],3.05 ± 0.56,3.15 ± 0.87,–,–
ADACDIDEIEEVPTTSHRLSRHDK [NETO1],5.59 ± 0.17,5.45 ± 0.17,–,–
SNWFVWVTQMNHIPMHIDHDRNMD [FADS1],2.09 ± 0.45,2.19 ± 0.13,–,–
AEDKAAVERSKMIDRNLREDGEKA [GNAI1],5.691 ± 0.042,5.34 ± 0.13,–,–
QAQAVQTEQAVALLRDRTGQQSDT [SCARA5],5.35 ± 0.34,5.19 ± 0.23,–,–
DKDKSPESHKAKNESWIKSHFSRL [C10orf62],3.46 ± 0.25,3.48 ± 0.31,–,–
PESETSILLSWTPPRSDTIANYEL [PTPRD],3.09 ± 0.35,2.96 ± 0.39,–,–
CLAKGTFSDVTFILDDGTISAHKP [RHOBTB2],2.36 ± 0.27,2.46 ± 0.17,–,–
LALDREPPPHLLPEKHQVPEKLIW [WDR88],3.31 ± 0.32,3.17 ± 0.3,–,–
SVVRRCVKVLAGQEYAAKIINTKK [CAMK2A],2.72 ± 0.35,2.52 ± 0.5,–,–

# Source: the supplement of paper PMC10567573
